Values joined by “and” are separate entries in the source; they are usually repeats but may differ in a detail not shown here. Identical values can stand only once. Each block holds one substance with its values, some of them ahead of it.
Columns and labels:
[1] = target: Pt-Get3a (full-length, amino acids 1–349), purified, His-tag cleaved (Phaeodactylum tricornutum); test: SAXS; HPLC with online size exclusion column, beamline BL23A1 (NSRRC), proteins ~5 mg/mL; P2 symmetry for the dimer, p222 for the Pt-Get3a/TA complex
[2] = target: Pt-Get3a (full-length, amino acids 1–349), purified, His-tag cleaved (Phaeodactylum tricornutum); test: SEC; purified Pt-Get3a alone; NaCl increased to 500 mM; peak at ~78 mL
[3] = target: Pt-Get3a (full-length, amino acids 1–349), purified, His-tag cleaved (Phaeodactylum tricornutum); test: SEC; purified Pt-Get3a (after TEV cleavage of the 6His-tag) or its mutants alone; near physiological saline, ~100 mM NaCl; tetramer-dimer equilibrium
[4] = target: Pt-Get3a L283D_I290D, purified (Phaeodactylum tricornutum); test: as above
[5] = target: Pt-Get3a wild type, co-expressed with His-tagged TA protein (Phaeodactylum tricornutum); test: SEC; Pt-Get3a/TA complex co-expressed and co-purified by Ni-NTA, then Superdex-200; ~100 mM NaCl and, as a control, 500 mM NaCl; fractions on SDS-PAGE
[6] = target: Pt-Get3a wild type, co-expressed with His-tagged TA protein (Phaeodactylum tricornutum); test: SAXS; HPLC with online size exclusion column, beamline BL23A1 (NSRRC), proteins ~5 mg/mL; P2 symmetry for the dimer, p222 for the Pt-Get3a/TA complex

stoichiometry N [1]: 2
stoichiometry N [2]: 2
stoichiometry N [3]: 4
Substance: Pt-Get3a (full-length, amino acids 1–349), purified, His-tag cleaved (natural protein)

stoichiometry N [4]: 2
Substance: Pt-Get3a L283D_I290D, purified (natural protein)

stoichiometry N [5]: 4 and 2
stoichiometry N [6]: 4
Substance: Pt-Get3a wild type, co-expressed with His-tagged TA protein (natural protein)
